Results from PMC6181972, “Indoleacetate decarboxylase is a glycyl radical enzyme catalysing the formation of malodorant skatole” (Nature Communications, 2018).

Key:
purified protein = substrate: O=C(O)Cc1c[nH]c2ccccc12; assay: purified protein; conditions: activated with 100 nM OsIADAE, 1 mM SAM, 0.2 mM Ti(III) citrate, 20 mM Tris-HCl pH 7.5, 0.1 M KCl, 30 °C, anaerobic
[1] = molecular target: the molecule itself; assay: SEC; size exclusion chromatography of purified recombinant OsIAD; column and buffer not told in the text shown (Supplementary Fig. 1c); dimer to monomers

B1: Olsenella scatoligenes indoleacetate decarboxylase (OsIAD) (enzyme, UniProt A0A100YXA1 1-878, looked up)
chain: MQESLVLEMLQTGKTATWPANSGTQDGEGFVDKEVKGVPSTDRTKRMKERFMNAKCKMDMEAPIAYTKAWRMYEGKPLYVRRGLSYKYMLEHLTPVIRPDELITMSKTRYDRGATQVPQFATDFMISFLTQAEDQKDEAKLFSVEGKDEAHTVDEEGWTPVGQLFSIREEEVKPMLEVLEYWKTRCVENVSDEWMKTSFPMYQDYINAKKVGLFPGSGLHAGCDGRWIPAYDVVLGGLNKVIDECKKNIAKTVVTTKDVADKVFFWQGCIYACEGAIAWANNYAKEARRLAEITPEPRKTELLQMAERLERVPAEPPRNFMEAVQALWTAQILIISDSLALGVSPGRWGKLLEPYYEKDLADGVITKEQALEVMEMLRIKFSTEEYITPSLWAAMASSNSFMNLAVGGLDPKTGQCTDNELEDLILQAGINMPTPQPTLSMLLSNKTSDHLALKAAECTKAGNGYPAWFNYDMMVEHNLWCYADEGITMEDARNCALSGCVENGLAGTGHPIAHPAFYNEGKTIELALHEGVDPRTGIKVMDGIKPVESYEDVWNNFVKIREHFMRVYMRYWNEVVACQRDIHPKIMGSIFMHDCVENGRPVDNLGCRYNGSVTLLDSGTVNVVNGLAAMKKLIWEDHKYTYAEFKEAMDNNFGFVLGAEKGNFSMLNQEIDPEKHMKYAQIHRDILNCPKFGNDDDFVDDIFVKVWQDYDRVTGSETTYNGYRWITAALSISAHGPHGRVTGATPDGRLAGVTLCDGILSASPGTDVNGPIALIRSGVKLDPTTFASVQLNMKFHPSAIRGEEGSKNFVDFIRSYFNMGGYHVQFNIVDSKMLRDAQDKPQNYRDLMVRVAGFSAYWNELGKPIQDEVIARTEYDAL
notes: Indoleacetate decarboxylase (glycyl radical enzyme) of Olsenella scatoligenes, UniProt A0A100YXA1; codon-optimized synthetic gene in pET-28a-HT (His6-tag, TEV protease cleavage site, then the construct); also called HT-IAD; A0A100YXA1; source: E. coli BL21 (DE3), purified (TALON, ammonium sulfate precipitation, G25 desalting)
- Km (purified protein): 370 ± 60 µM
- kcat (purified protein): 2.0 ± 0.1 s^–1
- stoichiometry N [1]: 2
